From publication PMC9830511, “Flot2 acts as a novel mediator of podocyte injury in proteinuric kidney disease” (International Journal of Biological Sciences, 2023) come the findings set out here.

The assay has as its target T1, GST-Flot2 full length (amino acids 1-428) (mouse, UniProt Q60634 1-428).
T1 construct: it may add a CBP tag as well; also called GST-tagged Flot2
T1 sequence (looked up): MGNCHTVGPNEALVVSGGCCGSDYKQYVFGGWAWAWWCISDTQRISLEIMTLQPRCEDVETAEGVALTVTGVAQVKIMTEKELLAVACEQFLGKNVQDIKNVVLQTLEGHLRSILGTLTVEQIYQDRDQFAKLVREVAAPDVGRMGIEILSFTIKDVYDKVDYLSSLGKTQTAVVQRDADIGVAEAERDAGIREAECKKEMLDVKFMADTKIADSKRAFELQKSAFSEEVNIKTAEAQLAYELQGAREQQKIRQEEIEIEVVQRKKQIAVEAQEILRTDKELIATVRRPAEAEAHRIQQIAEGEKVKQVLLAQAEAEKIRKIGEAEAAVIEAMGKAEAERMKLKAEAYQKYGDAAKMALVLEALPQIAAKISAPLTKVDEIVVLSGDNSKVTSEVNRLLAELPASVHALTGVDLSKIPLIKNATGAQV
Put plainly: pull-down; GST pull-down: GST-Flot2 (full length) on GST resin, His-podocin (full length); overnight at 4 °C; eluted with 20 mM reduced glutathione; immunoblot with anti-His. Conditions: both partners purified. For orientation: Immunoblotting shows a protein as a band on a membrane.

B1: His-podocin full length (natural protein, mouse, UniProt Q91X05 1-385, looked up)
chain: MDSRARSSSREAHGRSSRSSSRDDKKAKAGRGSRGRARPDAGAERQSTGRTATRGEPRAPAATATVVDVDEVRGPGEEGTEVVALLESERPEEGIKPSGLGACEWLLVLASLIFIIMTFPFSIWFCIKVVQEYERVIIFRLGHLLPGRAKGPGLFFFLPCLDTYHKVDLRLQTLEIPFHEVVTKDMFIMEIDAVCYYRMENASLLLSSLAHVSKAIQFLVQTTMKRLLAHRSLTEILLERKSIAQDVKVALDAVTCIWGIKVERTEIKDVRLPAGLQHSLAVEAEAQRQAKVRVIAAEGEKAASESLRMAAEILSGTPAAVQLRYLHTLQSLSTEKPATVVLPLPFDMLSLLSSPGNRAQGSINYPSSSKPVEPLNPKKKDSPML
notes: Podocin, mouse, full-length cDNA in pET-28a(+); also called His-tagged podocin; His-tagged mouse podocin
As to B1, the binding result is on record as “binds”.
